# Data from patent publication US11098109B2, “Single-chain variable fragment anti-CD133 antibodies and uses thereof” (REGENTS OF THE UNIVERSITY OF MINNESOTA, priority 2010, dated 2021).
# Entries after “also recorded” stand apart in the source; their conditions may differ.
# T1: CD133 (Homo sapiens, UniProt O43490)
# T1 construct: endogenous in cells
# T1 sequence (O43490 20-865): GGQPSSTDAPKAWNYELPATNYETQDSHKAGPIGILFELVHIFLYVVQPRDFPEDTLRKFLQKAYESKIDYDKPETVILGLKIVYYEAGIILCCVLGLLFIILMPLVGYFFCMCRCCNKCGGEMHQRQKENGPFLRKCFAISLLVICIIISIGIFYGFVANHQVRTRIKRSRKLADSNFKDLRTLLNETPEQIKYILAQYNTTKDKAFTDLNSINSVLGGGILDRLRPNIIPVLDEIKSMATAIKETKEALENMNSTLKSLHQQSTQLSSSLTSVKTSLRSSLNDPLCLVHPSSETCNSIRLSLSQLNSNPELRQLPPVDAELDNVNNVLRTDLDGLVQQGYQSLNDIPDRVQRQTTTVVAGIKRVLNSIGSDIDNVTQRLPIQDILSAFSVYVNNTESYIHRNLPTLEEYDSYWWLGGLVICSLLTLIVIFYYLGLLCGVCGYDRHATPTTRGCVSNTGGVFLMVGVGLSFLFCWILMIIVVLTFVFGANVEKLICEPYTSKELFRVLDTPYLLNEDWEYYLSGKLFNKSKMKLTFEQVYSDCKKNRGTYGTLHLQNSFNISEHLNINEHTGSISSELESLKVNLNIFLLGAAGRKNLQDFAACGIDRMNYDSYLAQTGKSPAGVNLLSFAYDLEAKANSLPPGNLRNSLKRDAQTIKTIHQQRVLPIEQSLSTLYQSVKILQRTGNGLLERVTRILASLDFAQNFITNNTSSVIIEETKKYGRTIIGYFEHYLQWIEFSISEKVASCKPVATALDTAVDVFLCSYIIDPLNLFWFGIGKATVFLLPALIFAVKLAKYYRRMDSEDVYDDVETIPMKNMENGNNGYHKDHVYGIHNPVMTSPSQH
# B1: Hybridoma Clone 7: monoclonal antibody produced by Hybridoma Clone 7 that specifically binds to human CD133 (antibody, V domains shown)
# VL: DIVLSQSPAIMSASPGEKVTISCSASSSVSYMYWYQQKPGSSPKPWIYRTSNLASGVPARFSGSGSGTSYSLTISSMEAEDAATYYCQQYHSYPPTFGAGTKLELK
# VH: LEVKLVESGPELKKPGETVKISCKASGYTFTDYSMHWVNQAPGKGLKWMGWINTETGEPSYADDFKGRFAFSLETSASTAYLQINNLKNEDTATYFCATDYGDYFDYWGQGTTLTVSS
# B2: No. 11 scFv: soluble scFv of the Hybridoma Clone 7 antibody expressed in E. coli Top10F', SEQ ID NO:58; also used FITC-labeled (protein)
# scFv: MDIVLSQSPAIMSASPGEKVTISCSASSSVSYMYWYQQKPGSSPKPWIYRTSNLASGVPARFSGSGSGTSYSLTISSMEAEDAATYYCQQYHSYPPTFGAGTKLELKSSGGGGSGGGGGGSSRSSLEVKLVESGPELKKPGETVKISCKASGYTFTDYSMHWVNQAPGKGLKWMGWINTETGEPSYADDFKGRFAFSLETSASTAYLQINNLKNEDTATYFCATDYGDYFDYWGQGTTLTVSS
# modifications: optionally FITC-labeled; scFv polypeptide
# How the values were obtained:
# CD133 [1] = molecular target: T1, CD133; assay: Flow cytometry specificity test on U87, CD133-transfected U87, Caco-2 and GBM6 cells; format: binding
# Experimental: FIG. 3: Specificity of antibody produced by Hybridoma Clone 7. (A) Flow cytometry. Cells were incubated with primary antibody from either Hybridoma Clone 7 or 293C3 (Militenyi), followed by incubation with a labeled secondary antibody, and then analyzed by flow cytometry. Antibody from the newly developed anti-CD133 Hybridoma Clone 7 (open black histogram) stains very specifically the CD133-overexpressing cells, Caco-2 (iii), GBM6 (iv) and U87 cells transfected with CD133 (ii) but not CD133 negative U87 cells (i). Immunostaining using the monoclonal antibody produced by Hybridoma Clone 7 is compared to clone 293C3 (open grey histogram). Isotype control is represented by solid grey histogram. (B) Tunicamycin mediated glycosylation inhibition. Caco-2 cells were treated with increasing doses of tunicamycin (2.5, 5, 10, 20 μg/ml) for 3 days. DMSO treated cells or untreated cells served as controls. Cells were lysed and then analyzed by Western blotting using the monoclonal antibody produced by Hybridoma Clone 7 or GAPDH antibodies.
# CD133-IRES GFP or CMV GFP constructs were transfected into U87 cells using FuGENE HD transfection reagent according to the manufacturer's instructions. Briefly, cells were plated in a 10 cm dish. Twelve hours later, 10 μg of the pDNA was diluted in serum-free growth DMEM and mixed with 40 μl of the transfection reagent. Following incubation for 15 minutes, the transfection mix was added to the cells. Forty-eight hours later, cells were harvested using non-enzymatic cell dissociation buffer (Sigma-Aldrich Corp., St. Louis, Mo.) for flow cytometry.
# Primary human glioblastoma GBM6 cells, U87, or Caco-2 cells were washed three times and suspended in 100 μl of PBS. […] Cells were further incubated with 10 μl of anti-mouse hylite 647 (1:40 dilution; American Qualex, San Clemente, Calif.) for 30 minutes at 4° C., washed three times, and analyzed by flow cytometry.
# CD133 [2] = molecular target: T1, CD133; assay: Flow cytometry of FITC-labeled CD133scFv on CD133-transfected HEK293-TLR2 cells; format: binding; conditions: CD133-transfected vs control HEK293-TLR2 cells; listed as CD133scFv
# Experimental: FIG. 4: CD133scFV recognizes the CD133 marker. The CD133scFv was labeled with FITC. An oligonucleotide was prepared from the known GenBank sequence of CD133 and then transfected into HEK293-TLR2 cells using a polyethylenimine (PEI)-DNA complex. The cells were incubated with anti-CD133scFv-FITC complex, washed, and then analyzed by flow cytometry. Data are represented in standard histogram format whereby % positive cells are plotted against fluorescence intensity. […] Controls include transfected cells reacted with empty vector, transfected cells reacted with an isotype control, or untransfected cells that are not reacted with CD133-FITC.
# Ult-Luc or CMV-CD133 pDNA constructs were transfected into HEK293-TLR2 cells using JetPEI transfection reagent according to the manufacturer's instructions (Polyplus Transfection). Briefly, 7.5×10^5 cells/well were seeded in a 6-well plate. Twelve hours later, 2.5 μg of each pDNA were diluted in 5 μl 5% dextrose and mixed with 0.35 μL JetPEI also in 5 μl 5% dextrose. Following incubation for 15 minutes, the transfection mix was added to the cells. […]
# CD133scFv was labeled with FITC at a FITC:scFv ratio of 24:1 (Invitrogen, Carlsbad, Calif.) and dialyzed to remove any free unbound FITC. […] Data are represented in standard histogram format whereby % positive cells are plotted against fluorescence intensity. […]
Molecule,flow cytometry staining of non-transfected U87 cells (CD133 [1]; CD133^low/- U87 cells),flow cytometry staining of cells that endogenously express CD133 (CD133 [1]; Caco-2 and GBM6 cells),flow cytometry staining of CD133-transfected U87 cells (CD133 [1]; U87 transfected with human CD133 cDNA),reaction of FITC-labeled scFv with cells (CD133 [2])
B1,did not appreciably stain,able to immunostain,labeled CD133-transfected cells,
B2,,,,Only the CD133-transfected cells reacted; also recorded: Only the CD133 transfected cells reacted
